Measured values published in patent US20260028391A1 (HUMABS BIOMED, published 2026).

Columns and labels:
[1] = target: fusion glycoprotein (F) of RSV A GFP (Tables 41 and 42) (respiratory syncytial virus A); assay: cell-based or functional assay
[2] = target: fusion glycoprotein (F) of RSV B GFP (Tables 41 and 42) (respiratory syncytial virus B); assay: cell-based or functional assay
[3] = target: fusion glycoprotein (F) of MPV A GFP (Tables 41 and 43) (metapneumovirus A); assay: cell-based or functional assay
[4] = target: fusion glycoprotein of the RSV used in the neutralization assay of Example 1 (respiratory syncytial virus (strain not …)); assay: cell-based or functional assay
[5] = target: fusion glycoprotein of the MPV D280 used in the neutralization assay of Example 3 (metapneumovirus (strain )); assay: cell-based or functional assay
RSV F B, B Ref = target: T1, RSV F B, B Ref (RSV B); assay: FACS, % binding to RSV F B variants
T1 construct: whole, on cells

RSV F B K68N-N201S = target: T2, RSV F B K68N-N201S (RSV B); assay: FACS, % binding to RSV F B variants
T2 construct: whole, on cells

RSV F B N201S = target: T3, RSV F B N201S (RSV B); assay: FACS, % binding to RSV F B variants
T3 construct: whole, on cells

RSV F B N208S = target: T4, RSV F B N208S (RSV B); assay: FACS, % binding to RSV F B variants
T4 construct: whole, on cells; also called mutant N208S

RSV F B S443P = target: T5, RSV F B S443P (RSV B); assay: FACS, % binding to RSV F B variants
T5 construct: whole, on cells; also called mutant S443P

RSV F B K68N-N208S = target: T6, RSV F B K68N-N208S (RSV B); assay: FACS, % binding to RSV F B variants
T6 construct: whole, on cells

RSV-B F = target: T7, RSV-B F (RSV B); assay: BLI
T7 construct: also called RSV F B

RSV-A F = target: T8, RSV-A F (RSV A); assay: BLI
T8 construct: also called RSV F A

[6] = target: RSV A fusion glycoprotein (F), virus of the neutralisation assays of Tables 54 and 57 (RSV A); assay: cell-based or functional assay
RSV F B N208D = target: T9, RSV F B N208D (RSV B); assay: FACS, % binding to RSV F B variants
T9 construct: whole, on cells

B1: MPK190-rIgG1-LS (antibody, V domains shown)
VH: EVQLVESGGGLVKPGGSLTLSCAASGFSISGYGMNWVRQAPGRGLEWVASISASSTYIYYADSMKGRFTISRDNGKTSLYLQMKSLRAEDTAVYYCARAPIEPPYFDLWGRGTLVTVSS
VL: QSVLTQPPSVSGAPGQRVTISCTGSNSNIGAGYDVHWYQHLPGKAPKVLIYGNNNRPSVVPDRFSGSNSGASASLAISGLQAEDEADYFCQSYDRRLSGPIFGGGTKLTVL
For B1, the “IC50 (ng/ml), RSV A GFP neutralization; sample MPK190-rIgG1-LS/4B6” value [1] was 3.73 ng/mL, the “IC50 (ng/ml), RSV A GFP neutralization; sample MPK190-rIgG1-LS/KYT” value [1] was 3.88 ng/mL and the “IC50 (ng/ml), RSV A GFP neutralization; stressed sample MPK190-rIgG1-LS day 0” value [1] was 3.21 ng/mL. The “IC50 (ng/ml), RSV A GFP neutralization; stressed sample MPK190-rIgG1-LS day 7” value [1] was 2.94 ng/mL, the “IC50 (ng/ml), RSV A GFP neutralization; stressed sample MPK190-rIgG1-LS day 12 (day 13 in Table 41)” value [1] was 7.02 ng/mL and the “IC50 (ng/ml), RSV B GFP neutralization; sample MPK190-rIgG1-LS/4B6” value [2] was 6.39 ng/mL. For the same binder, the “IC50 (ng/ml), RSV B GFP neutralization; sample MPK190-rIgG1-LS/KYT” value [2] was 3.36 ng/mL, the “IC50 (ng/ml), RSV B GFP neutralization; stressed sample MPK190-rIgG1-LS day 0” value [2] was 4.1 ng/mL and the “IC50 (ng/ml), RSV B GFP neutralization; stressed sample MPK190-rIgG1-LS day 7” value [2] was 4.4 ng/mL. For the same binder, the “IC50 (ng/ml), RSV B GFP neutralization; stressed sample MPK190-rIgG1-LS day 12 (day 13 in Table 41)” value [2] was 4.51 ng/mL, the “IC50 (ng/ml), MPV A GFP neutralization; sample MPK190-rIgG1-LS/4B6” value [3] was 6.16 ng/mL and the “IC50 (ng/ml), MPV A GFP neutralization; sample MPK190-rIgG1-LS/KYT” value [3] was 7.9 ng/mL. The “IC50 (ng/ml), MPV A GFP neutralization; stressed sample MPK190-rIgG1-LS day 0” value [3] was 7.22 ng/mL, the “IC50 (ng/ml), MPV A GFP neutralization; stressed sample MPK190-rIgG1-LS day 7” value [3] was 5.8 ng/mL and the “IC50 (ng/ml), MPV A GFP neutralization; stressed sample MPK190-rIgG1-LS day 13” value [3] was 8.39 ng/mL.

B2: MPK130 (antibody, V domains shown)
VH: EVQLVESGGGLVKPGGSLTLSCEASGFSISGYYMIWVRQAPGKGLEWVSSISASDTYIDYAVSVQGRFTISRHNTKNSLYLQMSSLRVEDTGVYYCTREKVPSPGPFDCWGQGTLVTVSS
VL: QSVLTQPPSVSGAPGQRITISCTGTSSNIGAGYDVHWYQHLPGAAPRLLIYVNTNRPSGVPDRFSGARSGTSASLAITGLQAEDEADYYCQSYDRSLGGWAFGEGTKVTVL
In the case of B2, the “RSV Neutralization - IC50” value [4] is reported as 20.6 ng/mL and the “MPV D280 Neutralization - IC50” value [5] is reported as 4.3 ng/mL.

B3: MPK176-v4.3 (antibody, V domains shown)
VH: QVQLVQSGAEVKKPGASVRVSCKASGYTLTAYGISWVRQAPGQGLEWMGWISPKHGSTHYAQRFQGRVTMTTDTSTSTAYMELRSLRPDDTAVYFCAREGVDIMAVPWYFDYWGQGTLVAVSS
VL: SYVLTQPPSVSVAPGQTARISCGGNNIGSKSVHWYQQKPGQAPVVVVYDDSKRPSGIPERFSGSNSGNTATLTISGVEAGDEADYFCQVWDSATDHWVFGGGTKLTVL
B3 was tested, and the “% binding” value (RSV F B, B Ref) was 34.2%, the “% binding” value (RSV F B K68N-N201S) was 60.4% and the “% binding” value (RSV F B N201S) was 60.6%. For the same binder, the “% binding” value (RSV F B N208S) was 61.2%, the “% binding” value (RSV F B S443P) was 29.8% and the “% binding” value (RSV F B K68N-N208S) was 59.3%. The Kd (RSV-B F) was 0.0117 nM, the Kd (RSV-A F) was 0.139 nM and the “IC50, neutralization of RSVA” value [6] was 4.35 ng/mL.

B4: MPK104-rIgG1-LS (antibody, V domains shown)
VH: EVQLVESGGGLVKPGGSLRLSCAASGFTIDGYGMNWVRQAPGKGLEWVSSISASSNYIYYADSMKGRFTISRDNGKNSLYLQMHSLRVEDTGVYYCARAPLEPPYFDLWGRGTLVTVSS
VL: QSVLTQPPSVSGAPGQRVTISCSGGSSNIGAGYDVHWYQQVPGKGPKVLIYGNNNRPSGVPDRFSGSNFGASASLAITGLQADDEADYFCQSYDRRLGGPVFGGGTKLTVL
In the case of B4, the “IC50 (ng/ml), RSV A GFP neutralization” value [1] is reported as 7.44 ng/mL, the “IC50 (ng/ml), RSV B GFP neutralization” value [2] is reported as 5.23 ng/mL and the “IC50 (ng/ml), MPV A GFP neutralization” value [3] is reported as 6.79 ng/mL.

B5: MPK169-v2 (antibody, V domains shown)
VH: EVQLVQSGAEVKKPGESLTISCQTSGYSFINYWIGWVRQMPGKGLEWMGVIYPFDSDTEYSPSFRGHVTISADKSINTAYLQWNSLGASDTAMYYCARFTFGIALVSGDVNGEGHAFDVWGRGTLVTVSS
VL: EIVLTQSPPTLSVSPGQRATLSCRASQSVADKLAWYQQRPGQAPRLLIYGASSRATGVPARFSGSGSETEFTLTITSLQSEDFALYYCHQYNNWPHAFGQGTRLVIK
In the case of B5, the “RSV Neutralization - IC50” value [4] is reported as 1.4 ng/mL.

B6: MPK158 (antibody, V domains shown)
VH: EVQLVESGGGLVKPGGSLRLSCAASGFSISGFYMIWIRQAPGKGLEWISDISASSSYIDYADSVKGRFTISRDNGQNTVHLLMNNLRADDTGVYYCAREQTPSPGPFDLWGQGTLVTVST
VL: QPVLTQPPSVSGAPGQRVTISCTGRSSNIGAGYDVHWYQHLPGTSPKLLIYRNSNRPSGVPDRFSGSTSGTSASLAITGLQADDEADYYCQAYDRILGGWAFGGGTKLTVL
With B6 the “RSV Neutralization - IC50” value [4] was 18.2 ng/mL and the “MPV D280 Neutralization - IC50” value [5] was 6 ng/mL.

B7: MPK65-v2-v3.1 (antibody, V domains shown)
VH: QVPLVQSGAEVKKPGESLKISCKGSGYSFISYWIGWVRQMPGKGLEWMGVIYPFDADTKYSPSFQGHVTISADKSSNTAYVQWSSLKASDTAMYYCARFTFGIAVVTDDVSGEGQAFEIWGQGTMVTVSS
VL: EIVMMQSPATLSVSPGERATLSCRASQSVAGNLAWYQQRPGQAPRLLIYGASTRATGVPARFSGSGSETEFTLTISSLQSEDFAVYYCHQYSNWPQAFGQGTRLDIK
In the case of B7, the “% binding” value (RSV F B, B Ref) is reported as 60.1%, the “% binding” value (RSV F B K68N-N201S) is reported as 22.6% and the “% binding” value (RSV F B N208D) is reported as 0.14%. The “% binding” value (RSV F B N201S) was 31.3%, the “% binding” value (RSV F B N208S) was 0.029% and the “% binding” value (RSV F B S443P) was 30.6%. For the same binder, the “% binding” value (RSV F B K68N-N208S) was 0.052%, the Kd (RSV-B F) was 0.639 nM and the Kd (RSV-A F) was 0.192 nM. For the same binder, the “IC50, neutralization of RSVA” value [6] was 5.4 ng/mL.
